Data: US20260167959A1, “APTAZYME-BASED REGULATABLE GENE EXPRESSION SYSTEMS” (REJUVENATE BIO INC, priority 2022, published 2026)

B1: RA455 (nucleic acid)
DNA: GCGCGTCCTGGATTCGCGGAAACGCGTACATCCAGCTGACGAGTCCCCGGAATACCAGCATCGTCTTGATGCCCTTGGAAGTCCGGCAAATAGGACGAAACGCGC
modifications: expressed or natural sequence
B2: RA457 (nucleic acid)
DNA: GCGCGTCCTGGATTCGCGGAAACGCGTACATCCAGCTGACGAGTCCCAAATAGGACGAAGTGATACCAGCATCGTCTTGATGCCCTTGGCAGCACTAACGCGC
modifications: expressed or natural sequence
B3: RA433 (nucleic acid)
DNA: GCGCGTCCTGGATTCGCGGAAACGCGTACATCCAGCTGACGAGTCCCAAATAGGAAGTGATACCAGCATCGTCTTGATGCCCTTGGCAGCACTCGAAACGCGC
modifications: expressed or natural sequence
B4: RA443 (nucleic acid)
DNA: GCGCGTCCTGGATTCGCGGAAACGCGTACATCCAGCTGACGAGTCCCAAATAGGACGGAATACCAGCATCGTCTTGATGCCCTTGGAAGTCCGCGAAACGCGC
modifications: expressed or natural sequence
B5: RA440 (nucleic acid)
DNA: GCGCGTCCTGGATTCGCGGAAACGCGTACATCCAGCTGACGAGTCCCAAATAGGACGAAACGCCGGAATACCAGCATCGTCTTGATGCCCTTGGAAGTCCGGC
modifications: expressed or natural sequence
B6: RA441 (nucleic acid)
DNA: GCGCCCGGAATACCAGCATCGTCTTGATGCCCTTGGAAGTCCGGGTCCTGGATTCGCGGAAACGCGTACATCCAGCTGACGAGTCCCAAATAGGACGAAACGCGC
modifications: expressed or natural sequence
B7: RA434 (nucleic acid)
DNA: GCGCGTCCAGAATACCAGCATCGTCTTGATGCCCTTGGAAGTCTTGGATTCGCGGAAACGCGTACATCCAGCTGACGAGTCCCAAATAGGACGAAACGCGC
modifications: expressed or natural sequence
B8: RA446 (nucleic acid)
DNA: GCGCGTCCTGGATTCCGGAATACCAGCATCGTCTTGATGCCCTTGGAAGTCCGGCGGAAACGCGTACATCCAGCTGACGAGTCCCAAATAGGACGAAACGCGC
modifications: expressed or natural sequence
B9: RA445 (nucleic acid)
DNA: GCGCGTCGAGAATACCAGCATCGTCTTGATGCCCTTGGAAGTCTCCTGGATTCGCGGAAACGCGTACATCCAGCTGACGAGTCCCAAATAGGACGAAACGCGC
modifications: expressed or natural sequence
B10: RA451 (nucleic acid)
DNA: GCGCGTCCTGGATTCGCGGAAGAATACCAGCATCGTCTTGATGCCCTTGGAAGTCTAACGCGTACATCCAGCTGACGAGTCCCAAATAGGACGAAACGCGC
modifications: expressed or natural sequence
B11: RA442 (nucleic acid)
DNA: GCGCGTCCTGGATTCGCGGAAACGCGTACATCCGGAATACCAGCATCGTCTTGATGCCCTTGGAAGTCCGCAGCTGACGAGTCCCAAATAGGACGAAACGCGC
modifications: expressed or natural sequence
B12: RA458 (nucleic acid)
DNA: GCGCGTCCTGGATTCGCGGAAACGCGTACATCCAGCTGACGAGTCCCAAATAGGACGAACCGGAATACCAGCATCGTCTTGATGCCCTTGGAAGTCCGGACGCGC
modifications: expressed or natural sequence
B13: RA435 (nucleic acid)
DNA: GCGCGTCCTGGATTCGCGGAAACGCGTACATCCAGCTGACGAGTCCCAAACGGAATACCAGCATCGTCTTGATGCCCTTGGAAGTCCGTAGGACGAAACGCGC
modifications: expressed or natural sequence
B14: RA450 (nucleic acid)
DNA: GCGCGTCCTGGATTCGCGGAAACGCGTACATCCAGCTGACGAGTCCCAAATAGGACGAAACCCGGAATACCAGCATCGTCTTGATGCCCTTGGAAGTCCGGGCGC
modifications: expressed or natural sequence
B15: RA453 (nucleic acid)
DNA: GCGCGTCCTGGATTCGCGGAAACGCGTACATCCAGCTGACGAGTCCCAAATAGGACGAAACAGAATACCAGCATCGTCTTGATGCCCTTGGAAGTCTGCGC
modifications: expressed or natural sequence
B16: RA447 (nucleic acid)
DNA: GCGCGTCCTGGATTCGCGGAAACGCGTACATCCAGCTGACGAGTCCGGAATACCAGCATCGTCTTGATGCCCTTGGAAGTCCCAAATAGGACGAAACGCGC
modifications: expressed or natural sequence
B17: RA454 (nucleic acid)
DNA: GCGCGTCCTGGATTCGCGGAAACGCGTACATCCAGCTGACGAGTCCAGAATACCAGCATCGTCTTGATGCCCTTGGAAGTCTCAAATAGGACGAAACGCGC
modifications: expressed or natural sequence
B18: RA437 (nucleic acid)
DNA: GCGCGTCCTGGATTCGCGGAAACGCGTACATCCAGCTGACGAGTCCCAAGAATACCAGCATCGTCTTGATGCCCTTGGAAGTCTAATAGGACGAAACGCGC
modifications: expressed or natural sequence
B19: RA449 (nucleic acid)
DNA: GCGCGTCCTGGATTCGCGGAAACGCGTACATCCAGCTGACGAGTCCCAAATAGGACGAAACGCGAGTGATACCAGCATCGTCTTGATGCCCTTGGCAGCACTC
modifications: expressed or natural sequence
B20: RA452 (nucleic acid)
DNA: GCGCGTCCTGGAGAATACCAGCATCGTCTTGATGCCCTTGGAAGTCTATTCGCGGAAACGCGTACATCCAGCTGACGAGTCCCAAATAGGACGAAACGCGC
modifications: expressed or natural sequence
B21: RA436 (nucleic acid)
DNA: GCGCGTCCTGGATTCGCGGAAACGCGTACATCCAGCGGAATACCAGCATCGTCTTGATGCCCTTGGAAGTCCGCTGACGAGTCCCAAATAGGACGAAACGCGC
modifications: expressed or natural sequence
B22: RA438 (nucleic acid)
DNA: GCGCGTCCTGGATTCGCGGAAACGCGTACATCCAGCTGACGAGTCCCAAATAGGACGCGGAATACCAGCATCGTCTTGATGCCCTTGGAAGTCCGAAACGCGC
modifications: expressed or natural sequence
B23: RA439 (nucleic acid)
DNA: GCGCGTGAGAATACCAGCATCGTCTTGATGCCCTTGGAAGTCTCCCTGGATTCGCGGAAACGCGTACATCCAGCTGACGAGTCCCAAATAGGACGAAACGCGC
modifications: expressed or natural sequence
B24: RA448 (nucleic acid)
DNA: GCGCGCGGAATACCAGCATCGTCTTGATGCCCTTGGAAGTCCGTCCTGGATTCGCGGAAACGCGTACATCCAGCTGACGAGTCCCAAATAGGACGAAACGCGC
modifications: expressed or natural sequence
B25: RA444 (nucleic acid)
DNA: GCGCGTCCCGGAATACCAGCATCGTCTTGATGCCCTTGGAAGTCCGGCTGGATTCGCGGAAACGCGTACATCCAGCTGACGAGTCCCAAATAGGACGAAACGCGC
modifications: expressed or natural sequence
B26: RA432 (nucleic acid)
DNA: GCGCGTCCTGGATTCGCGGAAACGCGTACATCCAGCTGACGAGTCCCACCGGAATACCAGCATCGTCTTGATGCCCTTGGAAGTCCGGAATAGGACGAAACGCGC
modifications: expressed or natural sequence
B27: RA456 (nucleic acid)
DNA: GCGCGTCCTGGATTCGCGGAAACGCGTACATCCAGCTGACGAGTCCCAAATACCGGAATACCAGCATCGTCTTGATGCCCTTGGAAGTCCGGGGACGAAACGCGC
modifications: expressed or natural sequence
B28: RA043 (nucleic acid)
DNA: GCGCGTCCTCGAGAATACCAGCATCGTCTTGATGCCCTTGGAAGTCTCGGGATTCGCGGAAACGCGTACATCCAGCTGACGAGTCCCAAATAGGACGAAACGCGC
modifications: expressed or natural sequence
B29: RA044 (nucleic acid)
DNA: GCGGAGAATACCAGCATCGTCTTGATGCCCTTGGAAGTCTCCGTCCTGGATTCGCGGAAACGCGTACATCCAGCTGACGAGTCCCAAATAGGACGAAACGCGC
modifications: expressed or natural sequence

tested on: Renilla luciferase RNA; experiment: Barcoded aptazyme variant library screen: un-cleaved Renilla luciferase RNA by barcode read counts, HEK293-T cells; type: cell-based; conditions: un-cleaved Renilla luciferase RNA by barcode read counts; with 1 mM theophylline (ON) over without theophylline (OFF); HEK293-T cells; triplicate
How it was run: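 Barcode sequencing of cDNA versus DNA, normalized per aptazyme, gave the un-cleaved Renilla luciferase RNA fraction and fold-change with versus without theophylline (triplicates). Library: T3H48 ribozyme with one of seven theophylline aptamer variants inserted at each position, placed in the Renilla 3′ UTR of a dual-luciferase vector.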

Molecule | Fold change in RNA expression between the ON state and the OFF state
B1 | 0.5
B2 | 0.5
B3 | 0.6
B4 | 0.6
B5 | 0.6
B6 | 0.6
B7 | 0.6
B8 | 0.5
B9 | 0.5
B10 | 0.5
B11 | 0.6
B12 | 0.5
B13 | 0.6
B14 | 0.5
B15 | 0.5
B16 | 0.5
B17 | 0.5
B18 | 0.6
B19 | 0.5
B20 | 0.5
B21 | 0.6
B22 | 0.6
B23 | 0.6
B24 | 0.5
B25 | 0.6
B26 | 0.6
B27 | 0.5

same assay, conditions: un-cleaved Renilla luciferase RNA, HEK293-T cells cultured with 1 mM theophylline (ON) over without theophylline (OFF); barcode read counts, triplicate

Molecule | Fold change in RNA expression between the ON state and the OFF state
B28 | 2.1 fold
B29 | 2.1 fold
